In the Immune Epitope Database (IEDB):
Blank lines part the entries; values can stand above or below the sequence they belong to.

Key:
HLA-A*26:01 = assay: IEDB peptide-MHC binding, purified MHC/competitive/radioactivity; filed as Kd, often an IC50 or EC50 that approximates it; ≥ and ≤ were set here for values at or beyond the usual limits of such assays
HLA-A*32:01 = assay: as above
HLA-B*44:02 = assay: as above
HLA-A*02:01 [1] = assay: IEDB peptide-MHC binding, purified MHC/direct/fluorescence; filed as Kd, often an IC50 or EC50 that approximates it; ≥ and ≤ were set here for values at or beyond the usual limits of such assays; settings: source organism: Shigella dysenteriae
HLA-A*69:01 = assay: as above
HLA-A*02:01 [2] = assay: IEDB peptide-MHC binding, purified MHC/competitive/fluorescence; ≥ and ≤ were set here for values at or beyond the usual limits of such assays
HLA-B*35:01 = assay: IEDB peptide-MHC binding, purified MHC/competitive/radioactivity; filed as Kd, often an IC50 or EC50 that approximates it; ≥ and ≤ were set here for values at or beyond the usual limits of such assays
HLA-A*30:02 = assay: as above
HLA-B*44:03 = assay: as above
HLA-A*01:01 [3] = assay: as above
HLA-B*40:01 = assay: as above
HLA-A*01:01 [4] = assay: IEDB peptide-MHC binding, purified MHC/direct/fluorescence; filed as Kd, often an IC50 or EC50 that approximates it; ≥ and ≤ were set here for values at or beyond the usual limits of such assays
HLA-A*02:03 = assay: IEDB peptide-MHC binding, purified MHC/competitive/radioactivity; filed as Kd, often an IC50 or EC50 that approximates it; ≥ and ≤ were set here for values at or beyond the usual limits of such assays
HLA-A*02:06 = assay: as above
HLA-A*02:02 = assay: as above
HLA-A*03:01 = assay: IEDB peptide-MHC binding, purified MHC/direct/fluorescence; filed as Kd, often an IC50 or EC50 that approximates it; ≥ and ≤ were set here for values at or beyond the usual limits of such assays; settings: source organism: Escherichia coli
HLA-A*31:01 = assay: as above; settings: source organism: Escherichia coli
HLA-B*15:01 = assay: as above; settings: source organism: Human immunodeficiency virus 1
HLA-B*58:01 = assay: as above; settings: source organism: Human immunodeficiency virus 1
[5] = source organism: Dengue virus 3 Martinique/1243/1999
[6] = source organism: Dengue virus 1 Brazil/97-11/1997
[7] = source organism: Dengue virus 4 Philippines/H241/1956
[8] = source organism: Sudan ebolavirus
[9] = source organism: Dengue virus 2 Jamaica/1409/1983
[10] = source organism: Vaccinia virus Copenhagen
[11] = source organism: Vaccinia virus WR
[12] = source organism: Dengue virus 1 Singapore/S275/1990

Sequence: TTTGEIGAI
Kd (HLA-A*26:01; [5]): 5260 nM

Sequence: SVVETLEQM
Kd (HLA-A*26:01; [6]): 138 nM

Sequence: SAVPTEWFPT
Kd (HLA-A*32:01; [7]): ≥ 34000 nM

Sequence: GEDAPCKIPF
Kd (HLA-B*44:02; [5]): 59.2 nM

Sequence: ALELGRKTL
Kd (HLA-A*02:01 [1]): 8 µM
Kd (HLA-A*69:01; source organism: Shigella dysenteriae): ≥ 20000 nM

Sequence: EVEDYGFGMF
Kd (HLA-A*26:01; [7]): 72.1 nM

Sequence: TTHTSGPSV
IC50 (HLA-A*02:01 [2]; [8]): 17.8 µM

Sequence: EVEDYGFGIF
Kd (HLA-A*26:01; [6]): 1610 nM

Sequence: IANQAAILM
Kd (HLA-B*35:01; [6]): 103 nM

Sequence: NYADRRWCFD
Kd (HLA-A*32:01; [9]): ≥ 52300 nM

Sequence: AAVLMLVAHY
Kd (HLA-A*30:02; [6]): 508 nM

Sequence: EEQTLTILI
Kd (HLA-B*44:03; [9]): 146 nM
Kd (HLA-B*44:02; [9]): 14 nM

Sequence: MSYSMCTGKF
Kd (HLA-A*30:02; [9]): 1100 nM
Kd (HLA-A*01:01 [3]; [9]): 18000 nM
Kd (HLA-A*26:01; [9]): 79.4 nM

Sequence: SEKNETWKL
Kd (HLA-B*40:01; [6]): 113 nM
Kd (HLA-B*44:02; [6]): 153 nM

Sequence: FLQGAKWYL
Kd (HLA-A*69:01; source organism: Mycobacterium tuberculosis): 465 nM

Sequence: GESSPNPTI
Kd (HLA-B*40:01; [9]): 8.75 nM
Kd (HLA-B*44:02; [9]): 83.5 nM

Sequence: MLYGIAQKI
Kd (HLA-A*32:01; [10]): 12.4 nM

Sequence: KMLNLNYIV
Kd (HLA-A*32:01; [11]): 640 nM

Sequence: LAIMAVFKM
Kd (HLA-B*35:01; [7]): 22.2 nM

Sequence: LTDYGALTL
Kd (HLA-A*01:01 [3]; [6]): 201 nM

Sequence: CASSSDWFY
Kd (HLA-A*01:01 [4]; source organism: Tobacco leaf curl Zimbabwe virus): 2.1 nM

Sequence: DIDLLFNEKL
Kd (HLA-A*02:03; [11]): ≥ 26700 nM
Kd (HLA-A*02:06; [11]): ≥ 25.7 µM
Kd (HLA-A*02:02; [11]): 11200 nM

Sequence: FLFWFLKSGA
Kd (HLA-A*02:03; [11]): 0.584 nM
Kd (HLA-A*02:06; [11]): 0.0228 µM
Kd (HLA-A*02:02; [11]): 1.07 nM

Kd (HLA-A*03:01): ≥ 20 µM
Kd (HLA-A*31:01): 204 nM
Sequence: MPKPSLFVR

Sequence: YIMYNILPI
Kd (HLA-A*32:01; [11]): 39.4 nM

Sequence: EEYTDYMPSM
Kd (HLA-B*40:01; [9]): 833 nM
Kd (HLA-B*44:03; [9]): 116 nM

Sequence: RNPKNENDQY
Kd (HLA-A*30:02; [9]): 20.7 nM

Sequence: STEGRRVGV
IC50 (HLA-A*02:01 [2]; [8]): ≥ 210 µM

Sequence: LIAGIILLI
Kd (HLA-A*02:03; [10]): 38.5 nM
Kd (HLA-A*32:01; [10]): ≥ 77800 nM
Kd (HLA-A*02:06; [10]): 8.22 µM
Kd (HLA-A*02:02; [10]): 0.173 nM

Sequence: TTERGGKAY
Kd (HLA-A*01:01 [3]; [7]): 917 nM

Sequence: MHNQDGLIC
IC50 (HLA-A*02:01 [2]; source organism: Zaire ebolavirus): 2.34 µM

Sequence: IVNTTYDFL
Kd (HLA-A*02:03; [11]): 4680 nM
Kd (HLA-A*02:06; [11]): 2.99 µM
Kd (HLA-A*02:02; [11]): 1880 nM

Sequence: MVDVSMMSM
Kd (HLA-A*02:03; [11]): 1160 nM
Kd (HLA-A*02:06; [11]): 0.101 µM
Kd (HLA-A*02:02; [11]): 559 nM

Sequence: KLELKGMSY
Kd (HLA-A*30:02; [5]): ≥ 76900 nM
Kd (HLA-A*01:01 [3]; [5]): 391 nM

Sequence: DFLLRRWGG
IC50 (HLA-A*02:01 [2]; [8]): 56.4 µM

Sequence: PIPMSRLFM
Kd (HLA-A*02:03; [11]): 9130 nM
Kd (HLA-A*02:06; [11]): ≥ 31.2 µM
Kd (HLA-A*02:02; [11]): 3890 nM

Sequence: NMKPNFWSRI
Kd (HLA-A*02:03; [11]): 193 nM
Kd (HLA-A*02:06; [11]): 13.9 µM
Kd (HLA-A*02:02; [11]): 1680 nM

Sequence: NSSKVSQNY
Kd (HLA-A*01:01 [4]; source organism: Human immunodeficiency virus 1): 41.2 nM
Kd (HLA-B*15:01): 301 nM
Kd (HLA-B*58:01): 742 nM

Sequence: MEVDRSEAK
Kd (HLA-B*44:02; [6]): 7940 nM

Sequence: ILLKIVTQF
Kd (HLA-A*32:01; source organism: Dengue virus 4 Dominica/814669/1981): 412 nM

Sequence: YLFSQNYSF
Kd (HLA-A*32:01; [11]): 1.39 nM

Sequence: MAMVLSIVS
Kd (HLA-B*35:01; [12]): 659 nM

Sequence: AVLSEYETMV
Kd (HLA-A*02:03; [11]): 1.47 nM
Kd (HLA-A*02:06; [11]): 0.0236 µM
Kd (HLA-A*02:02; [11]): 0.758 nM

Sequence: KEENLVKSMV
Kd (HLA-B*44:03; [12]): ≥ 22100 nM

Sequence: AEIQPQWIA
Kd (HLA-B*44:03; [7]): 1230 nM
Kd (HLA-B*44:02; [7]): 26.4 nM

Sequence: PLTGNNTITT
Kd (HLA-A*02:03; [11]): ≥ 29500 nM
Kd (HLA-A*02:06; [11]): ≥ 69.8 µM
Kd (HLA-A*02:02; [11]): 7670 nM

Sequence: ELTGYGTVTM
Kd (HLA-A*26:01; [9]): 8470 nM

Sequence: RTRCKYVGCT
Kd (HLA-A*02:03; [11]): 12300 nM
Kd (HLA-A*02:06; [11]): 11.6 µM
Kd (HLA-A*02:02; [11]): 149 nM

Sequence: VHQIFGSAY
Kd (HLA-A*30:02; [5]): 9950 nM
